Test results published in the Immune Epitope Database (IEDB).

Columns and labels:
HLA-B*40:01 = assay: IEDB peptide-MHC binding, purified MHC/competitive/radioactivity; filed as Kd, often an IC50 or EC50 that approximates it; ≥ and ≤ were set here for values at or beyond the usual limits of such assays
HLA-B*18:01 [1] = assay: as above
HLA-B*40:02 = assay: as above
HLA-B*44:03 = assay: as above
HLA-B*44:02 = assay: as above
HLA-B*45:01 = assay: as above
HLA-A*03:01 = assay: IEDB peptide-MHC binding, purified MHC/competitive/fluorescence; filed as Kd, often an IC50 or EC50 that approximates it; ≥ and ≤ were set here for values at or beyond the usual limits of such assays
HLA-B*57:01 [2] = assay: IEDB peptide-MHC binding, purified MHC/direct/fluorescence; filed as Kd, often an IC50 or EC50 that approximates it; ≥ and ≤ were set here for values at or beyond the usual limits of such assays; settings: source organism: Vibrio parahaemolyticus AQ3810
HLA-B*58:01 = assay: as above; settings: source organism: Vibrio parahaemolyticus
HLA-B*15:17 [3] = assay: as above; settings: source organism: Vibrio parahaemolyticus AQ3810
HLA-B*46:01 = assay: IEDB peptide-MHC binding, purified MHC/competitive/fluorescence; filed as Kd, often an IC50 or EC50 that approximates it; ≥ and ≤ were set here for values at or beyond the usual limits of such assays; settings: source organism: Homo sapiens
HLA-A*26:01 = assay: as above; settings: source organism: Homo sapiens
HLA-B*18:01 [4] = assay: as above; settings: source organism: Homo sapiens
HLA-B*39:01 = assay: as above; settings: source organism: Homo sapiens
HLA-B*15:01 = assay: as above; settings: source organism: Homo sapiens
HLA-B*57:01 [5] = assay: as above; settings: source organism: Homo sapiens
HLA-B*51:01 = assay: as above; settings: source organism: Homo sapiens
HLA-A*69:01 = assay: as above; settings: source organism: Homo sapiens
HLA-B*15:17 [6] = assay: as above; settings: source organism: Homo sapiens
HLA-B*27:03 = assay: as above; settings: source organism: Homo sapiens
HLA-A*02:01 [7] = assay: IEDB peptide-MHC binding, purified MHC/direct/fluorescence; filed as Kd, often an IC50 or EC50 that approximates it; ≥ and ≤ were set here for values at or beyond the usual limits of such assays; settings: source organism: Homo sapiens
HLA-A*02:01 [8] = assay: IEDB peptide-MHC binding, purified MHC/competitive/fluorescence; filed as Kd, often an IC50 or EC50 that approximates it; ≥ and ≤ were set here for values at or beyond the usual limits of such assays; settings: source organism: Homo sapiens
HLA-B*08:02 = assay: IEDB peptide-MHC binding, purified MHC/direct/fluorescence; filed as Kd, often an IC50 or EC50 that approximates it; ≥ and ≤ were set here for values at or beyond the usual limits of such assays
HLA-B*08:01 = assay: as above
[9] = source organism: Mammarenavirus brazilense
[10] = source organism: SARS coronavirus Tor2
[11] = source organism: Mycobacterium tuberculosis C

PEDQGNPIVL
Kd (HLA-B*40:01; [9]): ≥ 30.6 µM
Kd (HLA-B*18:01 [1]; [9]): ≥ 39.3 µM
Kd (HLA-B*40:02; [9]): 10.5 µM
Kd (HLA-B*44:03; [9]): ≥ 70.1 µM
Kd (HLA-B*44:02; [9]): ≥ 70.2 µM
Kd (HLA-B*45:01; [9]): ≥ 70 µM

QLAFFVAGK
Kd (HLA-A*03:01; source organism: Escherichia coli K-12): 0.0128 µM

QTWKPDDVL
Kd (HLA-B*57:01 [2]): ≥ 20 µM
Kd (HLA-B*58:01): ≥ 20 µM
Kd (HLA-B*15:17 [3]): 0.73 µM

REMLAHAEET
Kd (HLA-B*40:01; [10]): 0.922 µM
Kd (HLA-B*18:01 [1]; [10]): 1.03 µM
Kd (HLA-B*40:02; [10]): 0.068 µM
Kd (HLA-B*44:03; [10]): 0.228 µM
Kd (HLA-B*44:02; [10]): 0.895 µM
Kd (HLA-B*45:01; [10]): 0.151 µM

RVDEIILFH
Kd (HLA-A*03:01; source organism: Trichodesmium erythraeum IMS101): 0.073 µM

RWFFRPLRK
Kd (HLA-A*03:01; source organism: Entamoeba dispar SAW760): 0.125 µM

SEGVPDLLV
Kd (HLA-B*40:01; [10]): ≥ 29.1 µM
Kd (HLA-B*18:01 [1]; [10]): ≥ 77.5 µM
Kd (HLA-B*40:02; [10]): ≥ 37 µM
Kd (HLA-B*44:03; [10]): ≥ 20.9 µM
Kd (HLA-B*44:02; [10]): ≥ 37.1 µM
Kd (HLA-B*45:01; [10]): 13.9 µM

TEAFEKMVSL
Kd (HLA-B*40:01; [10]): 0.00352 µM
Kd (HLA-B*18:01 [1]; [10]): 1.55 µM
Kd (HLA-B*40:02; [10]): 0.0347 µM
Kd (HLA-B*44:03; [10]): 5.74 µM
Kd (HLA-B*44:02; [10]): 1.92 µM
Kd (HLA-B*45:01; [10]): 4.46 µM

TEHSWNADL
Kd (HLA-B*40:01; [10]): 0.034 µM
Kd (HLA-B*18:01 [1]; [10]): 8.39 µM
Kd (HLA-B*40:02; [10]): 0.132 µM
Kd (HLA-B*44:03; [10]): 0.137 µM
Kd (HLA-B*44:02; [10]): 0.125 µM
Kd (HLA-B*45:01; [10]): 0.331 µM

VELKHFFFA
Kd (HLA-B*40:01; [10]): ≥ 29.8 µM
Kd (HLA-B*18:01 [1]; [10]): 1.71 µM
Kd (HLA-B*40:02; [10]): 0.103 µM
Kd (HLA-B*44:03; [10]): 2.63 µM
Kd (HLA-B*44:02; [10]): 15.6 µM
Kd (HLA-B*45:01; [10]): 0.0158 µM

VLIRRCHYL
Kd (HLA-B*46:01): ≥ 20 µM
Kd (HLA-A*26:01): ≥ 20 µM
Kd (HLA-B*18:01 [4]): ≥ 20 µM
Kd (HLA-B*39:01): ≥ 20 µM
Kd (HLA-B*15:01): ≥ 20 µM
Kd (HLA-B*57:01 [5]): ≥ 20 µM
Kd (HLA-B*51:01): ≥ 20 µM
Kd (HLA-A*69:01): ≥ 20 µM
Kd (HLA-B*15:17 [6]): ≥ 20 µM
Kd (HLA-B*27:03): ≥ 20 µM
Kd (HLA-A*02:01 [7]): 0.0015 µM

VSDFRKEFY
Kd (HLA-B*46:01): ≥ 20 µM
Kd (HLA-A*02:01 [8]): ≥ 20 µM
Kd (HLA-A*26:01): ≥ 20 µM
Kd (HLA-B*18:01 [4]): ≥ 20 µM
Kd (HLA-B*39:01): ≥ 20 µM
Kd (HLA-B*15:01): ≥ 20 µM
Kd (HLA-B*57:01 [5]): ≥ 20 µM
Kd (HLA-B*51:01): ≥ 20 µM
Kd (HLA-A*69:01): ≥ 20 µM
Kd (HLA-B*27:03): ≥ 20 µM

YLRRRQKAL
Kd (HLA-B*08:02; [11]): 1.31 µM
Kd (HLA-B*08:01; [11]): 0.01 µM

YSKVKLLGL
Kd (HLA-B*08:02; source organism: Kurkino virus): 0.512 µM
Kd (HLA-B*08:01; source organism: Orthohantavirus dobravaense): 0.0525 µM
